Values of other authors as cited in PMC10379010, “Short Peptides of Innate Immunity Protein Tag7 (PGLYRP1) Selectively Induce Inhibition or Activation of Tumor Cell Death via TNF Receptor” (International Journal of Molecular Sciences, 2023).

Test system: TNFR1
Set-up: method as in 3 sources, ref [14] = [14]; PMID 32093269; doi:10.3390/cells9020488; 14. Romanova E.A. Sharapova T.N. Telegin G.B. Minakov A.N. Chernov A.S. Ivanova O.K. Bychkov M.L. Sashchenko L.P. Yashin D.V. A 12-mer Peptide of Tag7 (PGLYRP1) Forms a Cytotoxic Complex with Hsp70 an ||| ref [15] = [15]; PMID 34163464; doi:10.3389/fimmu.2021.622471; 15. Telegin G.B. Chernov A.S. Kazakov V.A. Romanova E.A. Sharapova T.N. Yashin D.V. Gabibov A.G. Sashchenko L.P. A 8-mer Peptide of PGLYRP1/Tag7 Innate Immunity Protein Binds to TNFR1 Receptor and Inh ||| ref [10],[11] = [10]; PMID 26183779; doi:10.1074/jbc.M115.639732; 10. Yashin D.V. Ivanova O.K. Soshnikova N.V. Sheludchenkov A.A. Romanova E.A. Dukhanina E.A. Tonevitsky A.G. Gnuchev N.V. Gabibov A.G. Georgiev G.P. Tag7 (PGLYRP1) in Complex with Hsp70 Induces Altern || [11]; PMID 32636466; doi:10.1038/s41598-020-68088-x; 11. Sharapova T.N. Romanova E.A. Soshnikova N.V. Belogurov A.A. Jr. Lomakin Y.A. Sashchenko L.P. Yashin D.V. Autoantibodies from SLE patients induce programmed cell death in murine fibroblast cells th
Conditions: death under action of a specific ligand of TNFR1 or DNA-hydrolyzing autoantibodies; ref [10],[11]

B1: Tag7: innate immunity protein Tag7 (PGLYRP1), ligand of the TNFR1 receptor; recombinant (protein)
chain: QETEDPACCSPIVPRNEWKALASECAQHLSLPLRYVVVSHTAGSSCNTPASCQQQARNVQHYHMKTLGWCDVGYNFLIGEDGLVYEGRGWNFTGAHSGHLWNPMSIGISFMGNYMDRVPTPQAIRAAQGLLACGVAQGALRSNYVLKGHRDVQRTLSPGNQLYHLIQNWPHYRSP
  Inhibition of death of tumor cells, Tag7: inhibits the death of tumor cells
